What is called stoichiometry N is a count of units in the complex or per binding partner. The koff is the first-order rate constant of dissociation. Read a low koff as a long-lived complex. In general, kon refers to a measure of how fast the partners come together. Low readings indicate slow association, high ones fast association.

For data set [1], the target named is GII.4 Saga P-domain (native, non-deamidated) (human norovirus GII.4 Saga). The data set is described as follows: native MS; 150 mM ammonium acetate pH 7.3, purified GII.4 Saga P-domain, 25 C, also at low protein concentration.
Data set [2] has as its target GII.4 Saga P-domain deamidated at position 373 (iso-aspartate, iD) (human norovirus GII.4 Saga). Put plainly: ion-exchange chromatography of exchanging dimers; 373iD/iD and 373Q/Q dimers mixed 1:1, total 1.24 mg/ml, 75 mM sodium phosphate, 100 M NaCl (so in the source), 0.02% NaN3, pH 7.3, 298 K; aliquots over 38 days on analytical cation exchange chromatography; fraction of mixed dimers fitted to an exponential; dimer to monomers.

For data set [3], the target named is T1, MNV CW1 P-domain (MNV-1 P-dimer) (Murine norovirus 1, UniProt Q80J94).
T1 construct: gene ORF2; MBP-His8 fusion from E. coli BL21(DE3), cleaved with HRV3C; MIL(proS)V(proS)A 13C-methyl labelled for NMR
Put plainly: differential scanning fluorimetry (SYPRO orange). The following applies: pH 5.3, 20 mM sodium acetate, 100 mM NaCl; 3 µM protein; stabilisation rises with ligand concentration. Format: binding.

The target of data set [4] is T1, MNV CW1 P-domain (MNV-1 P-dimer). Put plainly: methyl TROSY NMR titration, TITAN global lineshape analysis. Format: binding.
Data set [5] deals with the molecule itself. The data set is described as follows: SEC; analytical Superdex 75 Increase 3.2/300, 20 mM sodium acetate, 100 mM NaCl, pH 5.3, 278 K; 250 nM-270 uM protein; apparent molecular weight against feed concentration fitted, apparent KD; lower limit from the 10x dilution; dimer to monomers. For orientation: SEC sorts molecules by how far they enter the pores of the column.

Data set [6] deals with the molecule itself. The data set is described as follows: NMR titration; methyl TROSY (1H,13C HMQC) spectra of MILproSVproSA labeled apo P-domain at six concentrations 12.5-226 uM; global two-dimensional lineshape analysis with TITAN (dimerization model); 298 K, 20 mM sodium acetate-d3, 100 mM NaCl, pH* 5.26 in D2O; dimer to monomers.
Data set [7] deals with the molecule itself. The data set is described as follows: SEC-MALS; Superdex 75 10/300 GL, 10-200 uM protein, 20 mM sodium acetate, 100 mM NaCl, pH 5.3.
Data set [8] deals with the molecule itself. Put plainly: NMR titration; 1H,15N TROSY HSQC spectra of [U-2H,15N] labeled P-domain at 24-200 uM protein; intensities of unassigned dimer cross-peaks; 298 K, 20 mM sodium acetate, 100 mM NaCl, pH* 5.3; dimer to monomers.
Data set [9] deals with the molecule itself. Put plainly: native MS; 150 mM ammonium acetate pH 5.3, 2-92 uM purified P-domain, 25 C; relative dimer peak area against total protein fitted; dimer to monomers.

For the molecule “GII.4 Saga P-domain (native, non-deamidated) (domain or fragment)”, the stoichiometry N in data set [1] turned out to be 2.

In data set [2], “GII.4 Saga P-domain point mutant N373Q (domain or fragment)” came in with a dimer half-life time of 127 h and an off-rate (koff) of 1.51e-06 s⁻¹.

Consider `C[C@H](CCC(=O)NCC(=O)O)[C@H]1CC[C@H]2[C@@H]3[C@H](O)C[C@@H]4C[C@H](O)CC[C@]4(C)[C@H]3CC[C@]12C` [GCDCA, glycochenodeoxycholic acid], for which, in data set [3], the TM result is on record as “thermostability of CW1 P-domains improves considerably with increasing GCDCA concentrations”. The Kd in data set [4] was determined as 10.5 ± 0.5 µM.

B1: MNV-1 (CW1) P-domain (domain or fragment)
chain: TIYRMVDLPVIQPRLCTHARWPAPVYGLLVDPSLPSNPQWQNGRVHVDGTLLGTTPISGSWVSCFAAEAAYKFQSGTGEVATFTLIEQDGSAYVPGDRAAPLGYPDFSGQLEIEVQTETTKTGDKLKVTTFEMILGPTTNADQAPYQGRVFASVTAAASLDLVDGRVRAVPRSIYGFQDTIPEYNDGLLVPLAPPIGPFLPGEVLLRFRTYMRQIDTADAAAEAIDCALPQEFVSWFASNAFTVQSEALLLRYRNTLTGQLLFECKLYNEGYIALSYSGSGPLTFPTDGIFEVVSWVPRLYQLASVGSLATGRMLKQ
notes: Protruding (P)-domain of the major capsid protein VP1 of murine norovirus MNV-1 (CW1); construct truncated at the C-terminus compared to prior work; Monomer-dimer equilibrium in solution; Used unlabeled, [U-2H,15N] labeled or 13C-methyl (MILproSVproSA) labeled; also called MNV CW1 P-domain; MNV.CW1 P-domain; source: E. coli BL21 DE3, purified (Ni-NTA, HRV3C cleavage, Ni-NTA, SEC at pH 5.3)
In the case of B1, the Kd in data set [5] is 4 to 40 µM; in data set [6], 6.9 µM; in [8], ~31 µM; in [9], 32 µM. For the same molecule, the dissociation rate constant (koff) in data set [6] stood at 1.25 s⁻¹. The kon in [6] stood at 140000 M⁻¹ s⁻¹. Moreover, in [7], the “stoichiometry N” value came to 2.

The values above are taken from article PMC9184547, “Distinct dissociation rates of murine and human norovirus P-domain dimers suggest a role of dimer stability in virus-host interactions” (Communications Biology, 2022).
